Laboratory results from EP4541822A2 (Tsinghua University, dated 2025).

B1: recombinant protein (SH3)5-DNB (other)
chain: MKHHHHHHHENLYFQGHMDLNMPAYVKFNYMAEREDELSLIKGTKVIVMEKSSDGWWRGSYNGQVGWFPSNYVTEEGDSPLASGAGGSEGGGSEGGTSGATDLNMPAYVKFNYMAEREDELSLIKGTKVIVMEKSSDGWWRGSYNGQVGWFPSNYVTEEGDSPLASGAGGSEGGGSEGGTSGATHMDLNMPAYVKFNYMAEREDELSLIKGTKVIVMEKSSDGWWRGSYNGQVGWFPSNYVTEEGDSPLASGAGGSEGGGSEGGTSGATDLNMPAYVKFNYMAEREDELSLIKGTKVIVMEKSSDGWWRGSYNGQVGWFPSNYVTEEGDSPLASGAGGSEGGGSEGGTSGATDLNMPAYVKFNYMAEREDELSLIKGTKVIVMEKSSDGWWRGSYNGQVGWFPSNYVTEEGDSPLGGSGGSGGSGGSMEVQLLESGGGLVQPGGSLRLSCAASGTFDKINNMGWYRQAPGKQRDLVAQITPGGITDYADSVKGRFTISRDNSKNTLYLQMNSLRPEDTAVYYCNAEILKRAYIDVYVNYWGQGTLVTVSS

Legend:
[1] = molecular target: death receptor 5 (DR5) (human, UniProt O14763 56-440); test: cell-based or functional assay
[2] = molecular target: T1, multivalent domain (SUM)5; test: confocal imaging of SJSA-1 cells, (SIM)6-R4L (Red) plus (SUM)5 (Green), 100 nM each (Fig. 2A)
T1 construct: Labelled with Alexa647 for imaging; also called (SUM)5 (Green)

[3] = molecular target: T2, CXC motif chemokine receptor 4 (CXCR4) (human, UniProt P61073 1-352); test: confocal imaging of SJSA-1 cells; membrane puncta with the ligand fusions, none with the multivalent domains alone
T2 construct: whole, on cells; Endogenous receptor on human tumour cell lines; also called chemokine receptor CXCR4

[4] = molecular target: T2, CXC motif chemokine receptor 4 (CXCR4); test: fluorescence imaging of SJSA-1 cells with anti-CXCR4 immunostaining (Figs. 5A, 5B)
[5] = molecular target: T3, recombinant protein (SUM)3-DNB; test: fluorescence imaging of SJSA-1 cells (Figs. 5A, 5B)
T3 construct: The entry also holds a 7xHis tag and TEV site; Green-labelled for imaging; unlabelled in the apoptosis assays; also called (SUM)3-DNB (Green)

[6] = molecular target: B1; test: confocal imaging of SJSA-1 cells, 100 nM each (Fig. 9A)
[7] = molecular target: T2, CXC motif chemokine receptor 4 (CXCR4); test: fluorescence imaging of SJSA-1 cells with anti-CXCR4 immunostaining (Figs. 3A, 3B)
[8] = molecular target: T4, recombinant protein (SUM)5-DNB; test: fluorescence imaging of SJSA-1 cells, 100 nM (Figs. 3A, 3B)
T4 construct: The entry also holds a 7xHis tag and TEV site; Labelled with Alexa647 for imaging; also called (SUM)5-DNB (Green)

T2 sequence (P61073 whole entry, the tested form may be a part): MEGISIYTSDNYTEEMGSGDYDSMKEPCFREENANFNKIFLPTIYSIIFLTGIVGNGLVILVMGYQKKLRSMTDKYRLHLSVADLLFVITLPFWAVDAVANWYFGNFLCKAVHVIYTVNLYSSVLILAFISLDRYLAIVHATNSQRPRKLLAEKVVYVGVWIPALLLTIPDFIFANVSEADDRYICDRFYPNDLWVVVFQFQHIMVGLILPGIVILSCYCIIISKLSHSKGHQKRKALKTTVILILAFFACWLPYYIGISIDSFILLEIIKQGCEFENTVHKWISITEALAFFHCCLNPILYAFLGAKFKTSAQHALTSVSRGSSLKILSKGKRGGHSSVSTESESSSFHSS
T1 sequence (chain, as listed by the source): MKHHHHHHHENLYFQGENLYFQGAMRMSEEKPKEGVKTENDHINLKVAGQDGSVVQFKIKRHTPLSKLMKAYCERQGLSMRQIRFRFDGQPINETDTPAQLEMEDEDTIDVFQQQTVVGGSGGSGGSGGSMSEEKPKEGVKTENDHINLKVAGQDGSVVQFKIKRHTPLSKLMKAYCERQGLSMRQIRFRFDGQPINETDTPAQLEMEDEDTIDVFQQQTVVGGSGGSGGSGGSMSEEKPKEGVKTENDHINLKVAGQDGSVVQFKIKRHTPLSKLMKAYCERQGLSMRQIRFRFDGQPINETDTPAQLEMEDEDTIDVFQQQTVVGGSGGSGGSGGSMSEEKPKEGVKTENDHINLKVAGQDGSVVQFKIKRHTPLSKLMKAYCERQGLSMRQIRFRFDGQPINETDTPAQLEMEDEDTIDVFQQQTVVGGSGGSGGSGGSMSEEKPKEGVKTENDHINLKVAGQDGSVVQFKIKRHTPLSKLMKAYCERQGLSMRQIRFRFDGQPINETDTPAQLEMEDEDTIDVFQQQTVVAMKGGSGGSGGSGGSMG

For B1, which “apoptotic ratio of SJSA-1 cells, Annexin V-FITC/PI flow cytometry, 4 h; (SH3)5-DNB (Green) added together with (PRMH)5-CNB (Red) at 100 nM” value [1] is on record?
Its value is about 58.4%.

B2: recombinant protein (SIM)6-R4L (other)
chain: MKHHHHHHHENLYFQGAMSSKVDVIDLTIESSSDEEEDPPAKRGGSGGSGGSGGSKVDVIDLTIESSSDEEEDPPAKRGGSGGSGGSGGSKVDVIDLTIESSSDEEEDPPAKRGAMKGGSGGSGGSGGSMSSKVDVIDLTIESSSDEEEDPPAKRGGSVGSGGSGGSKVDVIDLTIESSSDEEEDPPAKRGGSGGSGGRGGSKVDVIDLTIESSSDEEEDPPAKRGAMRCWGGSGGSGGSGGSMGMCYRKCRGGRRWCYQKCGGSGGSGGSGGS
notes: also called (SIM)6-R4L (Red)
Does B2 bind [2]?
Result: binds

Does B2 bind [3]?
Result: binds

B3: recombinant protein (SIM)3-CNB (other)
chain: MKHHHHHHHENLYFQGAMKVDVIDLTIESSSDEEEDPPAKRGGSGGSGGSGGSMMKVDVIDLTIESSSDEEEDPPAKRGGSGGSGGSGGSMMKVDVIDLTIESSSDEEEDPPAKRGGSGGSGGSGGSMGEVQLMESGGGLVQAGGSLRLSCAASGRTFNNYAMGWFRRAPKGEREFVAAITRSGVRSGVSAIYGDSVKDRFTISRDNAKNTLYLQMNSLKPEDTAVYTCAASAIGSGALRRFEYDYSGQGTQVTVSS
notes: The entry also holds a 7xHis tag and TEV site; Red-labelled for imaging; also called (SIM)3-CNB (Red)
Does B3 bind [4]?
Result: binds

Does B3 bind [5]?
Result: binds

B4: recombinant protein (PRMH)5-CNB (other)
chain: MKHHHHHHHENLYFQGHMKGGSWGGSKKTPPPVPPRTTSKGGSGGSGGSGGSKKTPPPVPPRTTSKGGSGGSGGSGGSKKTPPPVPPRTTSKGGSGGSGGSGGSKKTPPPVPPRTTSKGGSGGSGGSGGSKKTPPPVPPRTTSKGGSGSKNLYFQGGSGGSGGSGGSMEVQLMESGGGLVQAGGSLRLSCAASGRTFNNYAMGWFRRAPKGEREFVAAITRSGVRSGVSAIYGDSVKDRFTISRDNAKNTLYLQMNSLKPEDTAVYTCAASAIGSGALRRFEYDYSGQGTQVTVSS
notes: The entry also holds a 7xHis tag and TEV site; Labelled with Alexa594; also called (PRMH)5-CNB (Red)
Does B4 bind [6]?
Result: binds

B5: recombinant protein (SIM)6-CNB (other)
chain: MKHHHHHHHENLYFQGAMSSKVDVIDLTIESSSDEEEDPPAKRGGSGGSGGSGGSKVDVIDLTIESSSDEEEDPPAKRGGSGGSGGSGGSKVDVIDLTIESSSDEEEDPPAKRGAMKGGSGGSGGSGGSMSSKVDVIDLTIESSSDEEEDPPAKRGGSVGSGGSGGSKVDVIDLTIESSSDEEEDPPAKRGGSGGSGGRGGSKVDVIDLTIESSSDEEEDPPAKRGAMRCWGGSGGSGGSGGSMGEVQLMESGGGLVQAGGSLRLSCAASGRTFNNYAMGWFRRAPKGEREFVAAITRSGVRSGVSAIYGDSVKDRFTISRDNAKNTLYLQMNSLKPEDTAVYTCAASAIGSGALRRFEYDYSGQGTQVTVSS
notes: The entry also holds a 7xHis tag and TEV site; Labelled with Alexa594 for imaging; also called (SIM)6-CNB (Red)
Does B5 bind [7]?
Result: binds

Does B5 bind [8]?
Result: binds
